Columns and labels:
4T1 cells = assay: Cell death/viability in cultures of 4T1 cells; type: cell-based, mouse
Description: (§1) Cell death/viability was determined by trypan blue dye exclusion, MTT cell viability assay, calcein assay, and anti-active caspase-3 immunoreactivity. In some experiments, cells were seeded in multiple 24-well plates (5×10^4 cells/well) for 24 h then transfected with different vectors using Lipofectamine Plus (Invitrogen): The different analysis occurred after 48 h (HEK-293T cells) or 72 h (4T1 cells) of serum starvation. In some experiments, cells were cultured in the presence of 10 μM caspase inhibitors: caspase-3 inhibitor II (Z-DEVD-FMK, 264155, VWR), caspase-8 inhibitor II (Z-IETD-FMK, 218759, VWR), and caspase-9 inhibitor II ([…], 218776, VWR).
(§2) For trypan blue exclusion experiments, total cells (adherent and floating) were collected by mechanical detachment and medium collection. Cells were pelleted by slow centrifugation and resuspended in serum-free medium. Trypan blue (0.4%) was added in a ratio of 1:1 to the cell suspension, and the percentage of cell death was measured in a hemacytometer by counting, in a blinded fashion and within a given volume, the number of blue (dead) cells and comparing this number to the total number of cells in this same volume.
(§3) For caspase staining, after immunostaining with anti-active caspase-3 antibody, the percentage of labelled cells was estimated by comparing the number of active caspase-3-stained cells with the total number of cells present on a given surface.
For assessing cell viability using calcein, cells were plated in OptiMEM medium in 96-well black plates (Greiner Bio-one, Courtaboeuf, France). After 3-6 days in culture, live cells were stained with 0.5 μg/ml green calcein-acetoxymethyl ester (Molecular Probes, Eugene, Oreg.) for 40 minutes at 37° C., and counted using a flash cytometer (Trophos, Marseille, France).
We next used an in vitro assay to evaluate whether SD1 is directly capable of triggering death of tumor cells. […] Similarly, 4T1-SD1 cells, which proliferate at the same rate as 4T1-mock cells during the first 24-48 h in culture, show increased death 72 h after plating, possibly as a result of SD1 accumulation in the culture medium (FIG. 14). […] Thus, SD1 triggers cancer cell death in a PlexinD1 dependent manner.

[1] = test system: HEK 293T cells transfected with hPlexinD1; assay: PlexinD1-induced cell death of transfected HEK 293T cells; type: cell-based, human; settings: for Effect of caspase inhibitor on the death effect of PlexinD1: 10 μM, trypan blue exclusion, cleaved Caspase-3 positive cells; for Effect of co-transfected semaphorin vector on PlexinD1-induced cell death: co-transfection with hPlexinD1
Description: FIGS. 28-29: HEK 293T cells transfected with an expression control vector or hPlexinD1 were cultured in absence or presence of different caspase inhibitors at 10 μM (caspase-3 (z-DEVD-fmk) and capspase-9 (z-LEHD-fmk), caspase-8 (z-IETD-fmk)). Cell death was measured by trypan blue exclusion-assay (28) or by quantification of the percentage of cleaved Caspase-3 positive cells (29). Activation of caspase-9 and caspase-3 is required for PlexinD1-mediated cell death.
FIG. 30: HEK 293T cells transfected with expression vectors for hPlexinD1, hPlexinD1-RA or a control vector were cultured in the absence or presence of different concentration of Sema3E (10 to 100 ng/ml).
FIG. 31: HEK 293T cells transfected with an expression vector for hPlexinD1 together with expression vector coding for Sema3E, Sema3C or a soluble form of Sema4A.
as §1, §2, §3

[2] = biological target: PlexinD1-IC D1471N/D1624N (UniProt Q9Y4D7)
[3] = biological target: T1, in vitro translated intracellular domain of PlexinD1 (hPlexinD1 aa 1293 to 1925) (UniProt Q9Y4D7)
T1 sequence: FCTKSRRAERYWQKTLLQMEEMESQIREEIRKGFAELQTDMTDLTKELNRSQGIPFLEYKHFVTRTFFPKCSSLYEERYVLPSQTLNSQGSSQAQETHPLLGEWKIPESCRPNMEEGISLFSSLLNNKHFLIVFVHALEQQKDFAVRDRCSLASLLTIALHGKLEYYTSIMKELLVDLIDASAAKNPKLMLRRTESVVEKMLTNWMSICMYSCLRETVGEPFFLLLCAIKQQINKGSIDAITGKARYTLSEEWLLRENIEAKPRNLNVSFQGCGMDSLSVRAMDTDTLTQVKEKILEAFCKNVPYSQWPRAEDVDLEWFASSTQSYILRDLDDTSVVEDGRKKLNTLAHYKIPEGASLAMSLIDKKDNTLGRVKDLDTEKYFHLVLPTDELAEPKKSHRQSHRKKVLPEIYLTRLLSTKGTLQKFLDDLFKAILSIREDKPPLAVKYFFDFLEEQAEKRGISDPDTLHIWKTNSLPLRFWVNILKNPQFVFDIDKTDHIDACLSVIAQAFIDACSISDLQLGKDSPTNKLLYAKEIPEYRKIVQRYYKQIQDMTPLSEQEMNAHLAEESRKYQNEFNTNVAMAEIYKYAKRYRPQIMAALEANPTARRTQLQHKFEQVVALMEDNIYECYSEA

[4] = biological target: T2, Sema3E (as printed in the displacement assay and as 'exogenous Sema3E' or Sema3E expression vector in the … (Mus musculus (Mouse), UniProt P70275 26-775)); assay: displacement of Sema3E binding to PlexinD1-expressing HEK293T cells by SD1 in conditioned medium (1-12 nM)
T2 construct: The methods describe production of mouse AP-Sema3E, which may be the one used in the displacement assay; also called Sema3E ligand; not shown: Alkaline phosphatase (AP) fusion partner, and a His tag if the AP-Sema3E-his construct was used
T2 sequence: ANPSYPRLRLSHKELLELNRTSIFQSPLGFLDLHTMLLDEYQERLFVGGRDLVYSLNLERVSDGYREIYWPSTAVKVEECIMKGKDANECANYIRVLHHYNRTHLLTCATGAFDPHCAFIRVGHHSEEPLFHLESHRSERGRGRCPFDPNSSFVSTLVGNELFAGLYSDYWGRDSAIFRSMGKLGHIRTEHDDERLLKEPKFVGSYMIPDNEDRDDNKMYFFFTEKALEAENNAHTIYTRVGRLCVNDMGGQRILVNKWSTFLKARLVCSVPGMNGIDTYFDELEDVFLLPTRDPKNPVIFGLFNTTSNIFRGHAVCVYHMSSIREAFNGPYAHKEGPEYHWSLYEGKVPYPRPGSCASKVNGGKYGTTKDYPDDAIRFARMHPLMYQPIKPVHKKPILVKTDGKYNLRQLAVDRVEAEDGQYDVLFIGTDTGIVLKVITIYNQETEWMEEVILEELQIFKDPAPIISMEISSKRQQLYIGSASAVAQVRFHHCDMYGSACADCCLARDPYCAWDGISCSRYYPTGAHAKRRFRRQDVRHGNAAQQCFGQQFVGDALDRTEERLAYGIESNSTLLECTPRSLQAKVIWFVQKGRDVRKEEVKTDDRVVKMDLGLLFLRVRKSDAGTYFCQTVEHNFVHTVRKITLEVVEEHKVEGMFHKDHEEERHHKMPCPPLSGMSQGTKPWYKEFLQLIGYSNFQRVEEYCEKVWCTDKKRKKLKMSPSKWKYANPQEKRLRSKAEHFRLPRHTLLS

With “shRNA1: small hairpin RNA targeting mouse Sema3E, SEQ ID NO: 26 (CCGGGCTGCTGAAAGTAATCACAATCTCGAGATTGTGATTACTTTCAGCAGCTTTTTG) [reference compound]” the “Death of 4T1 cells on knockdown of Sema3E” value (4T1 cells; transfection with shRNA to mouse Sema3E) was “induced death”.

In the case of z-LEHD-fmk [reference compound], the “Effect of caspase inhibitor on the death effect of PlexinD1” value (shortened to “Effect of caspase inhibitor”) [1] is reported as “blocked”.

In the case of z-DEVD-fmk [reference compound], the “Effect of caspase inhibitor” value [1] is reported as “blocked”.

In the case of z-IETD-fmk [reference compound], the “Effect of caspase inhibitor” value [1] is reported as “not”.

In the case of purified active caspase-3, the “in vitro cleavage by active caspase-3 (autoradiography)” value [2] is reported as “Mutation of both aspartic acid residues to asparagine (N) within the intracellular domain of PlexinD1 completely suppressed caspase-3 cleavage” and the “in vitro cleavage by active caspase-3 (autoradiography)” value [3] is reported as “the intracellular domain of PlexinD1 is cleaved by caspase-3, resulting in five protein products that migrate at apparent molecular weight of 16, 24, 30, 37 and 50 kDa”.

B1: Sema3C: class 3 semaphorin which does not directly bind to PlexinD1; expressed from vector (protein, UniProt Q99985 21-751, looked up)
Semaphorin-3C: GSSQPQARVYLTFDELRETKTSEYFSLSHHPLDYRILLMDEDQDRIYVGSKDHILSLNINNISQEALSVFWPASTIKVEECKMAGKDPTHGCGNFVRVIQTFNRTHLYVCGSGAFSPVCTYLNRGRRSEDQVFMIDSKCESGKGRCSFNPNVNTVSVMINEELFSGMYIDFMGTDAAIFRSLTKRNAVRTDQHNSKWLSEPMFVDAHVIPDGTDPNDAKVYFFFKEKLTDNNRSTKQIHSMIARICPNDTGGLRSLVNKWTTFLKARLVCSVTDEDGPETHFDELEDVFLLETDNPRTTLVYGIFTTSSSVFKGSAVCVYHLSDIQTVFNGPFAHKEGPNHQLISYQGRIPYPRPGTCPGGAFTPNMRTTKEFPDDVVTFIRNHPLMYNSIYPIHKRPLIVRIGTDYKYTKIAVDRVNAADGRYHVLFLGTDRGTVQKVVVLPTNNSVSGELILEELEVFKNHAPITTMKISSKKQQLYVSSNEGVSQVSLHRCHIYGTACADCCLARDPYCAWDGHSCSRFYPTGKRRSRRQDVRHGNPLTQCRGFNLKAYRNAAEIVQYGVKNNTTFLECAPKSPQASIKWLLQKDKDRRKEVKLNERIIATSQGLLIRSVQGSDQGLYHCIATENSFKQTIAKINFKVLDSEMVAVVTDKWSPWTWASSVRALPFHPKDIMGAFSHSEMQMINQYCKDTRQQHQQGDESQKMRGDYGKLKALINSRKSRNRRNQLPES
With B1 the “Effect of co-transfected semaphorin vector on PlexinD1-induced cell death” value [1] was “no change”.

B2: Sema3E: secreted Semaphorin 3E, ligand of PlexinD1; added as exogenous protein or co-transfected vector (protein)
chain: ANPSYPRLRLSHKELLELNRTSIFQSPLGFLDLHTMLLDEYQERLFVGGRDLVYSLNLERVSDGYREIYWPSTAVKVEECIMKGKDANECANYIRVLHHYNRTHLLTCATGAFDPHCAFIRVGHHSEEPLFHLESHRSERGRGRCPFDPNSSFVSTLVGNELFAGLYSDYWGRDSAIFRSMGKLGHIRTEHDDERLLKEPKFVGSYMIPDNEDRDDNKMYFFFTEKALEAENNAHTIYTRVGRLCVNDMGGQRILVNKWSTFLKARLVCSVPGMNGIDTYFDELEDVFLLPTRDPKNPVIFGLFNTTSNIFRGHAVCVYHMSSIREAFNGPYAHKEGPEYHWSLYEGKVPYPRPGSCASKVNGGKYGTTKDYPDDAIRFARMHPLMYQPIKPVHKKPILVKTDGKYNLRQLAVDRVEAEDGQYDVLFIGTDTGIVLKVITIYNQETEWMEEVILEELQIFKDPAPIISMEISSKRQQLYIGSASAVAQVRFHHCDMYGSACADCCLARDPYCAWDGISCSRYYPTGAHAKRRFRRQDVRHGNAAQQCFGQQFVGDALDRTEERLAYGIESNSTLLECTPRSLQAKVIWFVQKGRDVRKEEVKTDDRVVKMDLGLLFLRVRKSDAGTYFCQTVEHNFVHTVRKITLEVVEEHKVEGMFHKDHEEERHHKMPCPPLSGMSQGTKPWYKEFLQLIGYSNFQRVEEYCEKVWCTDKKRKKLKMSPSKWKYANPQEKRLRSKAEHFRLPRHTLLS
For B2, the “Effect of exogenous Sema3E on SD1-induced death” value (4T1 cells; exogenous Sema3E 100 ng/ml) was “sufficient to rescue cells from death”, the “Effect of exogenous Sema3E on death induced by Sema3E knockdown” value (4T1 cells; exogenous Sema3E 100 ng/ml, shRNA1) was “reversed” and the “Effect of exogenous ligand on PlexinD1-triggered cell death” value ([1]; Sema3E 10 to 100 ng/ml) was “inhibited in a dose dependent manner”. For the same molecule, the “Effect of co-transfected semaphorin vector on PlexinD1-induced cell death” value [1] was “saved from cell death”.

B3: SD1 (sema domain of mouse PlexinD1, aa 61 to 531, fused in frame with six myc epitope tags) (receptor, UniProt Q3UH93 61-531, looked up, not shown: small tags and cut ends)
chain: TNNFALDGTAGTVYLAAVNRLYQLSSANLSLEAEATVGPVPDSPLCHAPQLPQASCEHPRRLTDNYNKILQLDPGQGLVVACGSIYQGLCQLRRRGNISALAVSFPPAAPTAEPVTVFPSMLNVAANHPNASTVGLVLPPTSGTGGSRLLVGATYTGFGSAFFPRNRSLEDHRFENTPEIAIRSLDARGDLAKLFTFDLNPSDDNILKIKQGAKEQHKLGFVRAFLHPAVPPHSAQPYAYLALNSEARAGDKDSQARSLLARICLPRGAGGDAKKLTESYIQLGLQCAGGAGRGDLYSRLVSVFPAREQFFAVFERPQGAPGARNAPAALCAFRFDDVQAAIRAARTACFVEPAPDVVAVLDSVVQGTGPACESKRNIQLQPEQLDCGAAHLQHPLTILQPLRASPVFRAPGLTAVAVASANNYTAVFLGTATGRLLKISLNESMQVVSRRVLTVAYGEPVHHVMQFDPMD
notes: range 61-531; The construct starts with the Ig k-chain secretion signal peptide, left out here as it is a secretion signal; also called SD1 polypeptide; myc-tagged SD1
For B3, the IC50 [4] was 5.05 nM.

Source: US20130149306A1, “Antagonists of Sema3E/PlexinD1 interaction as anti-cancer agents” (NETRIS PHARMA, priority 2010, published 2013)
